Measurements published in patent US20100119588A1.

Target: hemagglutinin H1 on influenza virus A/Puerto Rico/8/34 strain (H1N1) (influenza virus A/Puerto Rico/8/34 (H1N1)) (UniProt P03452)
Assay: cell-based or functional assay

C18-s2(1-4)P4A (C18-ARLA peptide amide)
IC50(µM), plaque assay, infection of MDCK cells: > 100 µM
